Experimental data from US20260008830A1 (FUNDACI CENTRE DE REGULACI GEN MICA, published 2026).
Substitutions are numbered along the chain they refer to. In names and notes the source's numbering stands.

T1: IL-10 receptors R1 and R2 on HEK-Blue IL-10 reporter cells (UniProt Q13651 22-578; Q08334 20-325, limits assumed)
T1 sequence (looked up) 1: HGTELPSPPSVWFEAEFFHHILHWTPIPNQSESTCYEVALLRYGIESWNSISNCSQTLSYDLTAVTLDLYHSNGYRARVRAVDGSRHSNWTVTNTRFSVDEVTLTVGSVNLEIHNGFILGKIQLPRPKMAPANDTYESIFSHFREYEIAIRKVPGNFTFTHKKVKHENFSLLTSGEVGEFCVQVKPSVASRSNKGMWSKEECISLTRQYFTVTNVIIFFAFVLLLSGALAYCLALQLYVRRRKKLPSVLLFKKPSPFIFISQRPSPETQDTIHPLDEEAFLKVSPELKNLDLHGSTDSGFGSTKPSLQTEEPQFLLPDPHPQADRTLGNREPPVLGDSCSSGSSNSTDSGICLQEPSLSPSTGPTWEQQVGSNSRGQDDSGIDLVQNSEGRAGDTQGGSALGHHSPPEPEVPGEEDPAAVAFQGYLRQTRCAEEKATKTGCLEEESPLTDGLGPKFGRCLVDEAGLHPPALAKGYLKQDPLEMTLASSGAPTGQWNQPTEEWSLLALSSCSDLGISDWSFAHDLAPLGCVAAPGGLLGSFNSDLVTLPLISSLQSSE
T1 sequence (looked up) 2: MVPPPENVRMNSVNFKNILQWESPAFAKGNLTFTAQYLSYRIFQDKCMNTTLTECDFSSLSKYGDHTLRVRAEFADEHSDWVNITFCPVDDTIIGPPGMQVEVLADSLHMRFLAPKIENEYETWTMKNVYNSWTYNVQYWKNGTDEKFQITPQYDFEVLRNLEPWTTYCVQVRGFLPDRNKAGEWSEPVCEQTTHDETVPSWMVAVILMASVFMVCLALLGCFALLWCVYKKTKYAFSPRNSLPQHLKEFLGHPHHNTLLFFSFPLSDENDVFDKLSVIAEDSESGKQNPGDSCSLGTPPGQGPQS

B1: MutSC2 (MutSC1 with the Mut3 point mutations) (ligand)
chain: MTQSENSCTHFPGILPNMLRDLREAFKRVKTFFQMKDQLDSLLLKESLLEDFKGYLGCQALSEMIQFYLEEVMPQAENQDPDIKAHVISLGENLNTLRLRLRRCHRFLPCENKSKAVEQVKNAFNKLQEKGIYKAMSEFDIFINYIEAYMMMNNGGLDYLPNMLRDLREAFKRVKTFFQMKDQLDSLLLKESLLEDFKGYLGCQALSEMIQFYLEEVMPQAENQDPDIKAHVISLGENLNTLRLRLRRNHRFLPCENKSKAVEQVKNAFNKLQEKGIYKAMSEFDIFINYIEAYMMMKIRN
B2: Mut3 (IL-10 D28E, S31K, N45S, T155M, N18I, N92I, K99N) (ligand)
chain: MSPGQGTQSENSCTHFPGILPNMLRDLREAFKRVKTFFQMKDQLDSLLLKESLLEDFKGYLGCQALSEMIQFYLEEVMPQAENQDPDIKAHVISLGENLNTLRLRLRRCHRFLPCENKSKAVEQVKNAFNKLQEKGIYKAMSEFDIFINYIEAYMMMKIRN
B3: Mut2 (IL-10 D28E, S31K, N45S, T155M) (ligand)
chain: B2 chain with I19N, I93N, N100K
B4: Mut1 (IL-10 D28E, S31R, N45S, T155M) (ligand)
chain: B2 chain with I19N, K32R, I93N, N100K
B5: MutM (engineered monomeric IL-10 with an inserted polyGly loop between Asn116 and Lys117) (ligand)
chain: MSPGQGTQSENSCTHFPGNLPNMLRDLRDAFSRVKTFFQMKDQLDNLLLKESLLEDFKGYLGCQALSEMIQFYLEEVMPQAENQDPDIKAHVNSLGENLKTLRLRLRRCHRFLPCENGGGSGGKSKAVEQVKNAFNKLQEKGIYKAMSEFDIFINYIEAYMTMKIRN
B6: MutSC1 (foldikine_10, single chain dimeric IL-10) (ligand)
chain: MTQSENSCTHFPGNLPNMLRDLRDAFSRVKTFFQMKDQLDNLLLKESLLEDFKGYLGCQALSEMIQFYLEEVMPQAENQDPDIKAHVNSLGENLKTLRLRLRRCHRFLPCENKSKAVEQVKNAFNKLQEKGIYKAMSEFDIFINYIEAYMTMNNGGLDYLPNMLRDLRDAFSRVKTFFQMKDQLDNLLLKESLLEDFKGYLGCQALSEMIQFYLEEVMPQAENQDPDIKAHVNSLGENLKTLRLRLRRNHRFLPCENKSKAVEQVKNAFNKLQEKGIYKAMSEFDIFINYIEAYMTMKIRN

Molecular target: T1, IL-10 receptors R1 and R2 on HEK-Blue …
Test: cell-based or functional assay

| Binder | Apparent Kd (M) average (HEK-Blue IL-10 SEAP reporter, absorbance 630 nm, saturation binding fit) [M] | Fold change-apparentKD (against IL-10 ORF) [fold] |
| --- | --- | --- |
| B1 | 1.2e-11 | 16.5 |
| B2 | 2.61e-11 | 7.59 |
| B3 | 6.45e-11 | 3.07 |
| B4 | 1.45e-10 | 1.37 |
| B5 | 2.56e-10 | 0.773 |
| B6 | 1.9e-11 | 10.4 |
